Data published in the DeepSol protein solubility set.

test: soluble on expression in E. coli; label from the status in PepcDB or PDB records

Sequence | soluble on expression in E. coli
MAQFVYTMHRVGKVVPPKRHILKNISLSFFPGAKIGVLGLNGAGKSTLLRIMAGIDKDIEGEARPQPDIKIGYLPQEPQLNPEHTVRESIEEAVSEVVNALKRLDEVYALYADPDADFDKLAAEQGRLEEIIQAHDGHNLNVQLERAADALRLPDWDAKIANLSGGERRRVALCRLLLEKPDMLLLDEPTNHLDAESVAWLERFLHDFEGTVVAITHDRYFLDNVAGWILELDRGEGIPWEGNYSSWLEQKDQRLAQEASQEAARRKSIEKELEWVRQGTKGRQSKGKARLARFEELNSTEYQKRNETNELFIPPGPRLGDKVLEVSNLRKSYGDRLLIDDLSFSIPKGAIVGIIGPNGAGKSTLFRMISGQEQPDSGTITLGETVKLASVDQFRDSMDNSKTVWEEVSGGLDIMKIGNTEMPSRAYVGRFNFKGVDQGKRVGELSGGERGRLHLAKLLQVGGNMLLLDEPTNDLDIETLRALENALLEFPGCAMVISHDRWFLDRIATHILDYQDEGKVEFFEGNFTEYEEYKKRTLGADALEPKRIKYKRIAK | soluble
MAQHGALETLKDLAEKEVDDAARLLGEMRRGCQQAEEQLKMLIDYQNEYRSNLNTDMGNGIASNRWINYQQFIQTLEKAIEQHRLQLTQWTQKVDLALKSWREKKQRLQAWQTLQDRQTAAALLAENRMDQKKMDEFAQRAAMRKPE | not soluble
MAQIDFRKKINWHRRYRSPQGVKTEHEILRIFESDRGRIINSPAIRRLQQKTQVFPLERNAAVRTRLTHSMEVQQVGRYIAKEILSRLKELKLLEAYGLDELTGPFESIVEMSCLMHDIGNPPFGHFGEAAINDWFRQRLHPEDAESQPLTDDRCSVAVLRLRDGEEPLNELRRKIRQDLCHFEGNAQGIRLVHTLMRMNLTWAQVGGILKYTRPAWWRGETPETHHYLMKKPGYYLSEEAYIARLRKELNLALYSRFPLTWIMEAADDISYCVADLEDAVEKRIFTVEQLYHHLHEAWGQHEKGSLFSLVVENAWEKSRSNSLSRSTEDQFFMYLRVNTLNKLVPYAAQRFIDNLPAIFAGTFNHALLEDASECSDLLKLYKNVAVKHVFSHPDVEQLELQGYRVISGLLEIYRPLLSLSLSDFTELVEKERVKRSPIESRLFHKLSTRHRLAYVEAVSKLPSDSPEFPLWEYYYRCRLLQDYISGMTDLYAWDEYRRLMAVEQ | not soluble
MAQLFFKYGAMNSGKTIEILKVAHNYEEQDKPVVLMTSGLDTRDGVGKVSSRIGLRRDAIPIFEETNVFDLINDLSYKPFCVLVDECQFLNKHHVIEFARIVDELDIPVMAFGLKNDFRNELFEGSKYLLLYADKLEELKTICWFCHKKATMNLHYIDGNPVYEGDQVQIGGNEAYYPVCRKHYFHPKTVNEEQLEHHHHHH | soluble
MAQQGVFTLPANTSFGVTAFANAANTQTIQVLVDNVVKATFTGSGTSDKLLGSQVLNSGSGAIKIQVSVNGKPSDLVSNQTILANKLNFAMVGSEDGTDNDYNDGIAVLNWPLG | soluble
MARATLACMEKITGAERSPEARDSAGAVGGADGREALVARVRAGERIKYLCFWGHRPLPDGRLGPSCLSQWWPSPFTVAGVEYATAEHWMMAGKARLFGDPEAERRVLAAAHPAGAKKAGRLVRGFDEAVWERERFRIVVEGSVHKFASDPALRVFLLATGERVLVEASPVDRVWGIGLAADDEAAVDPERWRGPNLLGFALMAARERLRAGELEHHHHHH | not soluble
MARIKLIDETTDLSQVRRPIGWDLEVNGVPYDVYRIDGYNHTLGGKFSENCYWACPAGKKPTYKNLIEFNGDAPTWGIVFDRSNYTKTKWDETSVECNGICWITRNGKKFYSIPARYMDYGLAKAQYILVKLLEECPLWLSERNWKEKAIGRKIWYENQPAKIIRINEENELWIEPDGIPVFKAPAHWDHDDYSDYENGLRVDLLSPNIYWFRD | not soluble
MARKKQFDYFGELNQLATNAYEAAKVLQEIVDNYSLENLVKKSEAIHQLEKENDEIVRKILNELYISFITPIDREDIVDITDHLDNIIDSINSLSYLLDHLVVEEMIAPALELTAYIVKATEGVKSATKEFAKFKNSKTLVSLIDEVNTIESQGDKLYSSAMKDLMTNEKDLLKVIKWKDVYDQLERTINDCESAVNIIVGIVIKNTLEHHHHHH | soluble
MARLTVHTLETAPEAAKARVEAVLQNNGFIPNLIGVLSNAPEALAFYQEVGKLNAANSLTAGEVEVIQIIAARTNQCGFCVAGHTKLATLKKLLSEQSVKAARALAAGEFDDAKLGALAAFTQAVMAKKGAVSDEELKAFFDAGYNQQQAVEVVMGVALATLCNYVNNLGQTEINPELQAYA | soluble
MARTREFDTEAAVSRAMELFWTRGYEATSVRDLTGHLGIGQGSLYAAFGDKDGLYRAALEHYRTTLAAAALRSLEEGTDARSAIRTMLVERIRIAVDDNGRGCLAVNAACERLPEDAATRRTVRDMQDAGRDALTEVLRVAAERGEIAKRHDPHTLAAFLVTFLNGLLVSSKITPDVRALEPLVEVALAALD | not soluble
MASECVDENSKPWMRVTVSCALLPEVLKQGAEAGGAVKLTGNPSEQSSEDGSHHCSSNFQNSPVTSDLSVLDASPCGLPAEKRKPPHRETSISSNASQSEREIAPTATRRLSPKPETATLSPSESSSLTAATLSNCSSRVQSSSDEKIGNCPSTSACSVSQTTASSEAPSWLSSGASTAQVLSERRGSIEEQPAPETSAAAVRVSRSSSDSENLFASCSASLRNLEPDDISDPENEAAAPACAETGASRAQDAAAVRADAENLGEGESHMETASTRAESLAKDAISSKVSRRGSAHTSSDASGQCQDALPSVGEGKPGEMNGREEDGEAEKPEASAESLQGSDGQANESEAPKPGGGRVDAKMRAKFKREFVRSWVDINRAPSWPPIKKNKYLSSDWKRVDLRTAAGEIRVETKKHRLFLNDLCFLFDGVYTQKSTLGRKAGLGLFCERPEGLHKGQIITEFVGWLVDRDLAESYRKQRTASHIVAVQKGFLYIDGAKEPAYGMGGGSFANDGSEFLGGPGNNAQFYHWFDDELGRTRVFLRATADIKNGEEIFVPYHKTYWVDNFEEQAENCPDAFKQRKLEQLRRRYKNPEFVHIPHREEVAMREREEAERRKRDKEESEKKKAAAKQPRCPVKRPCSAYLLFSVARRKELLKACGILSKGDDEPASQQVSESPEVPREGQRKRRASSASQAAAPVPAAANKRRKAEKDEPSSPEETKRGQVVAAAGLKRGAARPACVGDETAQKLAGWLAKDGAANVRTLCAELTREVAREWGNMRPEEKKPWEQLAEKEKIRYAKAVRTWREKLKKKKSGRETATRKRKVPCSRKGHGTEKGEKAGKVKPQADTSPREAAPEGTETRDHEDVQAGAKDRAATQKER | soluble
MASENNGSRSDSESITAPKADSTVVEPRKIALITGITGQDGSYLTEFLLGKGYEVHGLIRRSSNFNTQRINHIYIDPHNVNKALMKLHYADLTDASSLRRWIDVIKPDEVYNLAAQSHVAVSFEIPDYTADVVATGALRLLEAVRSHTIDSGRTVKYYQAGSSEMFGSTPPPQSETTPFHPRSPYAASKCAAHWYTVNYREAYGLFACNGILFNHESPRRGENFVTRKITRALGRIKVGLQTKLFLGNLQASRDWGFAGDYVEAMWLMLQQEKPDDYVVATEEGHTVEEFLDVSFGYLGLNWKDYVEIDQRYFRPAEVDNLQGDASKAKEVLGWKPQVGFEKLVKMMVDEDLELAKREKVLVDAGYMDAKQQPLEHHHHHH | soluble
MASEQEKTADFGFRTVAKDEKEVMVAEVFHSVAAKYDLMNDLMSFGIHRIWKRFTIECSGVRRNQRVLDLAGGTGDLTAKFSRMVGEGGEVILADINASMLKVGREKLRNKGIIDNINYVQANAEALPFPDDFFDCITISFGLRNVTDKNKALRSMYRVLKPGGRLLVLEFSKPVIKQLSTIYDAYSFHILPRIGEAVASDAGSYRYLAESIRMHPDQETLKGMMSDAGFDSVNYFNLTGGIVALHRGFKFLEHHHHHH | not soluble
MASGDLVRYVITVMLHEDTLTEINELNNYLTRDGFLLTMTDDEGNIHELGTNTFGLISTQSEEEIRELVSGLTQSATGKDPEITITTWEEWNSNRK | soluble
MASGQFVNKLQEEVICPICLDILQKPVTIDCGHNFCLKCITQIGETSCGFFKCPLCKTSVRKNAIR | soluble
